Patent US20250163186A1 (PHYLAXIS BIOSCIENCE, published 2025)
Substitutions are numbered along the chain they refer to.

B1: 9G9 (VHH)
VHH: EVQLLESGGGEVQPGGSLRLSCVASGLTFSSYNTGWLRQAPGKEREFVGLSGSSSTSTYYAESVKGRFTISRDNAKNTVYLQMTSLRAEDTAVYYCAARRLLSTYWSDRSWDFWGQGTLVTVEP
notes: also called hzB10v40 VHH, CDR1 site 9 M to T
B2: 9H9 (VHH)
VHH: B1 VHH with T34F
notes: also called hzB10v40 VHH, CDR1 site 9 M to F
B3: 10E3 (VHH)
VHH: B1 VHH with T34M, G35S
notes: also called hzB10v40 VHH, CDR1 site 10 G to S
B4: 10G10 (VHH)
VHH: B1 VHH with T34M, G35A
notes: also called hzB10v40 VHH, CDR1 site 10 G to A
B5: 28H1 (VHH)
VHH: B1 VHH with T34M, A97S
B6: 32F11 (VHH)
VHH: B1 VHH with T34M, L101R
B7: 33-2A2 (VHH)
VHH: B1 VHH with T34M, L102K
B8: 33-2C4 (VHH)
VHH: B1 VHH with T34M, L102F
B9: 33-2C5 (VHH)
VHH: B1 VHH with T34M, L102H
B10: 35G3 (VHH)
VHH: B1 VHH with T34M, T104R
B11: 39C11 (VHH)
VHH: B1 VHH with T34M, D108M
B12: 39E11 (VHH)
VHH: B1 VHH with T34M, D108H
B13: 44A11 (VHH)
VHH: B1 VHH with T34M, F113K
B14: 44C1 (VHH)
VHH: B1 VHH with T34M, F113M
B15: hzB10v4-NNT (Fc fusion)
VHH-Fc: EVQLVQSGGELVQAGGSLRLSCVASGLTFSSYNMGWLRQAPGKEREFVGMSGSSSTSTYYAESVKGRFTISRDNAKNTLYLQMSSLRAEDTAVYYCAARRMLSTYWSDRSWDFWGQGTQVTVKPGGPSVFLFPPKPKDTLMISRTPEVTCVVVDVSHEDPEVKFNWYVDGVEVHNAKTKPREEQYNSTYRVVSVLTVLHQDWLNGKEYKCKVSNKALPAPIEKTISKAKGQPREPQVYTLPPSRDELTKNQVNLTCLVKGFYPSDIAVEWESNGQPENNYKTTPPVLDSDGSFFLNSTLTVDKSRWQQGNVFSCSVMHEALHNHYTQKSLSLSPGK
notes: monomeric
B16: hzB10v5-NNT (Fc fusion)
VHH-Fc: B15 VHH-Fc with E62D, A75S, L79V, S84N, R87K, A88P, K123E
notes: monomeric
B17: hzB10v6-NNT (Fc fusion)
VHH-Fc: B15 VHH-Fc with E62D, A75S, L79V, S84N, R87K, A88P, K123R
notes: monomeric
B18: hzB10v7-NNT (Fc fusion)
VHH-Fc: B15 VHH-Fc with M50L, E62D, A75S, L79V, S84N, R87K, A88P
notes: monomeric
B19: hzB10v1-NNT (Fc fusion)
VHH-Fc: B15 VHH-Fc with V5L, Q6E, E10G, A14P, E62D, A75S, L79V, S84N, R87K, A88P
notes: monomeric
B20: hzB10v14-NNT (Fc fusion)
VHH-Fc: EVQLLESGGGEVQPGGSLRLSCVASGLTFSSYNMGWLRQAPGKEREFVGLSGSSSTSTYYADSVKGRFTISRDNSKNTVYLQMNSLKPEDTAVYYCAARRLLSTYWSDRSWDFWGQGTQVTVEPGGPSVFLFPPKPKDTLMISRTPEVTCVVVDVSHEDPEVKFNWYVDGVEVHNAKTKPREEQYNSTYRVVSVLTVLHQDWLNGKEYKCKVSNKALPAPIEKTISKAKGQPREPQVYTLPPSRDELTKNQVNLTCLVKGFYPSDIAVEWESNGQPENNYKTTPPVLDSDGSFFLNSTLTVDKSRWQQGNVFSCSVMHEALHNHYTQKSLSLSPGK
notes: monomeric
B21: hzB10v15-NNT (Fc fusion)
VHH-Fc: B20 VHH-Fc with L37V, G49S
notes: monomeric
B22: hzB10v16-NNT (Fc fusion)
VHH-Fc: B20 VHH-Fc with D62E
notes: monomeric
B23: hzB10v17-NNT (Fc fusion)
VHH-Fc: B20 VHH-Fc with S63A
notes: monomeric
B24: hzB10v18-NNT (Fc fusion)
VHH-Fc: B20 VHH-Fc with S63T
notes: monomeric
B25: hzB10v20-NNT (Fc fusion)
VHH-Fc: B20 VHH-Fc with V79L
notes: monomeric
B26: hzB10v2-NNT (Fc fusion)
VHH-Fc: B15 VHH-Fc with L37V, G49S, E62D, A75S, L79V, S84N, R87K, A88P
notes: monomeric
B27: hzB10v3-NNT (Fc fusion)
VHH-Fc: B15 VHH-Fc with L37V, E62D, A75S, L79V, S84N, R87K, A88P
notes: monomeric
B28: hzB10v27-NNT (Fc fusion)
VHH-Fc: B20 VHH-Fc with D62E, K87R, P88A
notes: monomeric
B29: hzB10v28-NNT (Fc fusion)
VHH-Fc: B20 VHH-Fc with D62E, N84S, K87R, P88A
notes: monomeric
B30: hzB10v29-NNT (Fc fusion)
VHH-Fc: B20 VHH-Fc with D62E, N84Q, K87R, P88A
notes: monomeric
B31: hzB10v31-NNT (Fc fusion)
VHH-Fc: B20 VHH-Fc with D62E, S85T, K87R, P88A
notes: monomeric
B32: hzB10v32-NNT (Fc fusion)
VHH-Fc: B20 VHH-Fc with L37V, D62E, K87R, P88A
notes: monomeric

Target: T1, human IgE (human, UniProt P01854 1-428)
T1 construct: written under the same molecule; also called IgE (Abcam ab65866); soluble IgE
T1 sequence (P01854 other isoform, or with tags, fused parts or gaps limits assumed, form in doubt): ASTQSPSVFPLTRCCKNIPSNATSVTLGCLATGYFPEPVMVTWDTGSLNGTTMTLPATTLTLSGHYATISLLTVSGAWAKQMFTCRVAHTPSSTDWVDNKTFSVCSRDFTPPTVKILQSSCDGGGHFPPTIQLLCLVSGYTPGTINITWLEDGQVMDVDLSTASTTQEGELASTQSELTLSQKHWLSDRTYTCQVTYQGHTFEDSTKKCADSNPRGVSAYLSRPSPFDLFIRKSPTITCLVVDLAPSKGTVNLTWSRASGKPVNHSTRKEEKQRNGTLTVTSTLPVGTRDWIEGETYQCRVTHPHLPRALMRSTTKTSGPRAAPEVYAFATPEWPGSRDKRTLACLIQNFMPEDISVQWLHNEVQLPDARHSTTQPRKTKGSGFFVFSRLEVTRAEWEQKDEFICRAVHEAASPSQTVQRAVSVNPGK
Test: ELISA, clone lysate on IgE-coated plate
Excerpt: Each amino acid in CDR1 (SEQ ID NO:3), CDR2 (SEQ ID NO:68), and CDR3 (SEQ ID NO:74) was randomly replaced such that the 20 natural amino acids would likely all have been sampled at every position. The expression vector for the VHH containing the mutagenized CDRs was then transfected into E. coli, and at least 96 clones were randomly chosen for each position mutated in each CDR. This gives likely coverage of all potential mutations at each position since the probability to get any given amino acid at that position is 5%. […] The heat maps represent the relative binding for each clone determined by the range of OD values from the ELISA background to WT CDR binding (FIGS. 16A-16C). Site numbering for each residue tested is indicated by the inset tables in FIGS. 16A-16C.

Row | Binder | Confirm OD450 Duplicate1 | Confirm OD450 Duplicate2 | R1 Screening OD450
1 | B1 | 0.535 | 0.524 | 0.886
2 | B2 | 0.49 | 0.5 | 0.88
3 | B3 | 0.508 | 0.494 | 0.846
4 | B4 | 0.484 | 0.479 | 0.966
5 | B5 | 0.471 | 0.492 | 0.927
6 | B6 | 0.557 | 0.557 | 0.924
7 | B7 | 0.557 | 0.564 | 1.01
8 | B8 | 0.514 | 0.523 | 1
9 | B9 | 0.525 | 0.573 | 1.01
10 | B10 | 0.593 | 0.612 | 1.07
11 | B11 | 0.562 | 0.585 | 1
12 | B12 | 0.55 | 0.534 | 1.01
13 | B13 | 0.661 | 0.654 | 1.14
14 | B14 | 0.556 | 0.537 | 1.06

Target: T2, CH2-4 constant domains of human IgE linked to a transmembrane protein, on 293 cells (human, UniProt P01854-1 104-428)
T2 construct: domain: CH2-4 constant domains; also called human IgE-expressing 293 cells
T2 sequence (P01854 other isoform, or with tags, fused parts or gaps): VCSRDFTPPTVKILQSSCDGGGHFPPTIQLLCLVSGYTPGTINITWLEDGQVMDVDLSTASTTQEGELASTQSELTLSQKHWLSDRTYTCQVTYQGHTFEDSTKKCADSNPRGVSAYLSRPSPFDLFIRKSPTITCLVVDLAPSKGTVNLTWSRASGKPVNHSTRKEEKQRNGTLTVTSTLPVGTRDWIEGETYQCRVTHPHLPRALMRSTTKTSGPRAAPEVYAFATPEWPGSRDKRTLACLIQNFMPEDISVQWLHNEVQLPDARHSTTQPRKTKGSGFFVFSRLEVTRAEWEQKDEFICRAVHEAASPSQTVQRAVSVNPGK
Test: flow cytometry, 293 cells expressing human IgE CH2-4
Method: (§1) First, 25 μg of DNA was added to Opti-MEM Reduced Serum Medium (Gibco) mixed with 75 μL of 40 kDa Polyethylenimine (PEI) for a final concentration of 1 μg DNA and 2.5 μg PEI per mL of culture volume. The plasmid DNA was allowed to pre-complex with PEI for 15 minutes before transferring the mixture to 25 mL of 293 cells in a shake flask at a density of 2×10⁶ cells/mL. […] Next, 50 μL of cells were transferred to wells of a round-bottom 96-well assay plate for a total of 50,000 293 cells per well. In a separate 96-well plate, monomeric VHH-hIgG1-Fc fusion proteins were titrated 1:5 in a 8-point dilution series starting at 1 μM in FACS Buffer with the 8th point containing no antibody. 50 μL from each antibody dilution was added to wells containing 50 μL of FACS Buffer with transfected 293 cells which produced a 2-fold dilution of the antibody concentrations from the dilution series resulting in a 500 nM final, starting concentration of the test article titration. The test articles and 293 cells were incubated together at 4° C. for 30 minutes. Next, the 96-well plates were centrifuged at 400×g for 5 minutes and the FACS buffer containing unbound antibody was decanted. Cells were washed 1× with 150 μL 4° C. FACS Buffer. […] The cells were incubated with the fluorophore conjugated detection antibody at 4° C. for 20 minutes. 293 cells were then centrifuged and washed once as described above. Cell pellets were resuspended in 30 μL FACS Buffer and analyzed on an iQue Screener Plus flow cytometer (Sartorius, IntelliCyt) with a 1 second sip time and 1 second void time. Mean fluorescent intensity was calculated using iQue onboard software gating on GFP+ or citrine+ cells.

Row | Binder | Bmax [MFI] | Kd [nM]
15 | B15 | 3.89e+06 | 75
16 | B16 |  | 2.5
17 | B17 |  | 1.95
18 | B18 | 3.34e+06 | 3.71
19 | B19 |  | 1.37
20 | B20 | 1.95e+06 | 2.11
21 | B21 | 1.89e+06 | 10
22 | B22 | 2.23e+06 | 1.89
23 | B23 | 2.07e+06 | 1.7
24 | B24 | 1.95e+06 | 5.07
25 | B25 | 2.24e+06 | 6.01
26 | B26 | 2.46e+06 | 1.81
27 | B27 | 1.69e+06 | 342

Target: T2, CH2-4 constant domains of human IgE …
Test: as above
Remark: another data set of the same source
Method: as §1

Row | Binder | Bmax [MFI] | Kd [nM]
28 | B28 | 753000 | 1.16
29 | B29 | 1.12e+08 | 7070
30 | B30 | 605000 | 2.31
31 | B31 | 575000 | 0.978
32 | B32 | 706000 | 1.33
